The target in one assay is T1, FLAG-CRAFΔN (193-648) (human, UniProt P04049 193-648).
T1 construct: Expressed in M7609 cells from a pCMV6-Entry vector; also called CRAF protein with a deletion at the N-terminal moiety; not shown: FLAG tag at the C-terminus (plasmid pCMV6-Myc-DDK-CRAFΔN)
The assay is described as follows: co-immunoprecipitation from M7609 cell lysate on anti-FLAG M2 magnetic beads, Western blot with anti-GSTP1. The protocol:
(§1) The transfected cells were used for coimmunoprecipitation. The cells were lysed by incubation in 0.5% NP-40 lysis buffer (0.5% NP-40, 20 mM HEPES pH 7.4, 150 mM NaCl, 1 mM MgCl₂, 1 mM EGTA, 10% glycerol, Complete, Mini (Roche Diagnostics) and PhosSTOP (Roche Diagnostics)) on ice for 30 min. Centrifugation was performed to give a supernatant as a cell lysate. The cell lysates obtained from the samples and containing the same amount of protein were each incubated with anti-FLAG M2 magnetic beads (Sigma-Aldrich) at 4° C. for 2 h to overnight, so that each FLAG-tagged protein was attached to the beads. The beads were washed four times with 0.5% NP-40 lysis buffer.
(§2) Each sample for western blotting was prepared from the beads obtained after the coimmunoprecipitation, and then subjected to SDS-PAGE for protein separation. The separated protein was transferred to a PVDF membrane. The membrane was incubated with a primary antibody solution and then washed. The primary antibody used was an anti-GSTP1 antibody (Medical & Biological Laboratories Co., Ltd.), an anti-FLAG antibody (F3165, Sigma-Aldrich), or an anti-GAPDH antibody (Abcam plc.). The membrane was then incubated with a secondary antibody (goat secondary antibody to rabbit or mouse IgG) solution and then washed. The signal on the membrane was visualized using ECL or ECL prime Western blotting detection system (GE Healthcare). […]
For orientation: Immunoblotting shows a protein as a band on a membrane.

For a further assay, the target named is T2, FLAG-BRAF (1-766) (Homo sapiens (Human), UniProt P15056 1-766).
T2 construct: Expressed in M7609 cells from plasmid pCV6-Myc-DDK-BRAF (OriGene Technologies); also called full-length BRAF protein; BRAF with the extension; not shown: FLAG tag (DDK tag) at the C-terminus
T2 sequence (P15056 whole entry): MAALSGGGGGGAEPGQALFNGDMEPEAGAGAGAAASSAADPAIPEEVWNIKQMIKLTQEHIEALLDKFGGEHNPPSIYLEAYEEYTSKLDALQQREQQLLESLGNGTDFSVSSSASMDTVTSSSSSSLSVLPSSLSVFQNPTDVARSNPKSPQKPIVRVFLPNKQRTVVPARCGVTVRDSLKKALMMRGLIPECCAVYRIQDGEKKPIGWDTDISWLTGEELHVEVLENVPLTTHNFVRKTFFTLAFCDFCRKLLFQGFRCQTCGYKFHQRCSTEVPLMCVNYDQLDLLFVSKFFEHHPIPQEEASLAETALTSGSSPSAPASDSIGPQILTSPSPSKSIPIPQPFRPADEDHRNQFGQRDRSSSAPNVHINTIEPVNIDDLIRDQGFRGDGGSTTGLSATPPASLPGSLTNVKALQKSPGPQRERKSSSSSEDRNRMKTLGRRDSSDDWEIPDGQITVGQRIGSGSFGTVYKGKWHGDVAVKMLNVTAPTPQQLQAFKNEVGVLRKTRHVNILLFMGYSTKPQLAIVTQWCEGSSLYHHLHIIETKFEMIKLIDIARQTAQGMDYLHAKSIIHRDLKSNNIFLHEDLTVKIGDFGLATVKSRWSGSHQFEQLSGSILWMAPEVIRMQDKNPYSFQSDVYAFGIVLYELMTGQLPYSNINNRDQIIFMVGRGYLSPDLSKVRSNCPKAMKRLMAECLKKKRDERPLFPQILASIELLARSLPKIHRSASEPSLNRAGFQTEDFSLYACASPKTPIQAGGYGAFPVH
The assay is described as above. The protocol: as §1, §2

Here are results for one molecule from patent publication US20200370050A1 (published 2020).

B1: GSTP1 (endogenous, in lysates of KRAS mutation-positive colon cancer cells) (enzyme)
chain: PPYTVVYFPVRGRCAALRMLLADQGQSWKEEVVTVETWQEGSLKASCLYGQLPKFQDGDLTLYQSNTILRHLGRTLGLYGKDQQEAALVDMVNDGVEDLRCKYISLIYTNYEAGKDDYVKALPGQLKPFETLLSQNQGGKTFIVGDQISFADYNLLDLLLIHEVLAPGCLDAFPLLSAYVGRLSARPKLKAFLASPEYVNLPINGNGKQ
notes: also called glutathione S-transferase pi; endogenous GSTP1
Regarding B1, the binding result with FLAG-CRAFΔN (193-648) and with FLAG-BRAF (1-766) was “no binding” each time.
